From article PMC7508890

Assays:
[1] = biological target: recombinant hemagglutinin (HA) derived from A/Thailand/CU44/2006, wild type (influenza A virus A/Thailand/CU44/2006); test: SEC-MALS
[2] = biological target: recombinant hemagglutinin (HA) derived from A/Thailand/CU44/2006, wild type (influenza A virus A/Thailand/CU44/2006); test: […]; 20 mM Tris-HCl pH 8.0, 100 mM NaCl

Work on “recombinant hemagglutinin (HA) derived from A/Thailand/CU44/2006, wild type (natural protein)” yielded a stoichiometry N [1] of 9 HA trimers and a stoichiometry N [2] of 3.
